These results are taken from patent publication US20180079819A1 (IMMUNOGEN, published 2018).

Assay [1] addresses T1, human CD123 (IL-3Rα, interleukin-3 receptor alpha chain) (human, UniProt P26951 19-378).
T1 construct: CD123 on human cell lines (TF-1, HNT-34, MOLM-13 and other AML, B-ALL, CML and NHL lines) or on 300-19 cells stably expressing human CD123; also called CD123 antigen; human CD123 antigen
As to the kind of experiment: flow cytometry on HNT-34 cells, PE-conjugated goat anti-human secondary. On the technique in general: In flow cytometry, cells or beads pass a laser one at a time.

Assay [2] addresses T1, human CD123 (IL-3Rα, interleukin-3 …). Briefly: cell-based or functional assay.
The target is the same in assay [3]. As to the kind of experiment: flow cytometry on TF-1 cells; EC50 of the binding curve taken as apparent Kd; TF-1 cells. How it is done:
Binding affinity was tested by flow cytometry using purified antibodies. […] TF-1 cells (5×10⁴ cells per sample) were incubated with varying concentrations of murine antibodies in 200 μL FACS buffer (DMEM medium supplemented with 2% normal goat serum). The cells were then pelleted, washed twice, and incubated for 1 hr with 100 μL of phycoerythrin (PE)-conjugated goat anti-mouse IgG-antibody (Jackson Laboratory). The cells were pelleted again, washed with FACS buffer and resuspended in 200 μL of PBS containing 1% formaldehyde. Samples were acquired using a FACSCalibur flow cytometer with the HTS multiwell sampler, or a FACS array flow cytometer, and analyzed using CellQuest Pro (all from BD Biosciences, San Diego, US). For each sample the geomean fluorescence intensity for FL2 was calculated and plotted against the antibody concentration in a semi-log plot. A dose-response curve was generated by non-linear regression and the EC₅₀ value of each curve, which corresponds to the apparent dissociation constant (Kd) of each antibody, was calculated using GraphPad Prism v4 (GraphPad software, San Diego, Calif.).

The target is the same in assay [4]. Briefly: flow cytometry on HNT-34 cells; EC50 of the binding curve taken as apparent Kd.
Assay [5] shares this target. As to the kind of experiment: flow cytometry on HNT-34 cells; apparent Kd.
The target is the same in assay [6]. Briefly: flow cytometry on HNT-34 cells, PE-conjugated goat anti-human secondary. The source holds these as a separate data set.
Assay [7] shares this target. Briefly: cell-based or functional assay. This is another data set of the same source.
Assay [8] shares this target. As to the kind of experiment: cell-based or functional assay. This is another data set of the same source.

Changes are numbered by the printed parent chain. Where two headings read alike, the source gives them in different places.

Usually EC50 (read off the curve) stands for the concentration giving half of the maximal effect. A higher EC50 (read off the curve) goes with a less potent agent.

B1: huCD123-6Gv4.7-CysMab (antibody)
heavy chain: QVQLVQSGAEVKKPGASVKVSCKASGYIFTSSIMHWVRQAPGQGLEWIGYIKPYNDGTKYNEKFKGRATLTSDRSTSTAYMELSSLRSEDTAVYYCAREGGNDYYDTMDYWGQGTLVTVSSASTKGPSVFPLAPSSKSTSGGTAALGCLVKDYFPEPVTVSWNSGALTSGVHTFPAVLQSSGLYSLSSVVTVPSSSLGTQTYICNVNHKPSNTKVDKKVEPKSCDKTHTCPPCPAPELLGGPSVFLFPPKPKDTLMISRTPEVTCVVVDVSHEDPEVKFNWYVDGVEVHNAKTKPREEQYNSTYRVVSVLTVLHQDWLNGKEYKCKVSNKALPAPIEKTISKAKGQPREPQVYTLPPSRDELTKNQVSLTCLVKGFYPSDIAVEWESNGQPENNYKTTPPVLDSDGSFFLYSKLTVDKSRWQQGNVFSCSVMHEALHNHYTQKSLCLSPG
light chain: DIQMTQSPSSLSASVGDRVTITCRASQDINSYLSWFQQKPGKAPKTLIYRVNRLVDGVPSRFSGSGSGNDYTLTISSLQPEDFATYYCLQYDAFPYTFGQGTKVEIKR
notes: Differs from m21 (huCD123-6Gv4.7) by the engineered Cys in the heavy chain CH3 domain; it is the antibody part of m29 and m30
For the molecule B1, the “EC50 (read off the curve)” value in assay [1] was ~0.04 nM.

B2: muCD123-3 (antibody, mouse IgG1, kappa, V domains shown)
VH: EFQLQQSGPEVVKPGASVKMSCKASGYTFTSYVMHWMKQKPGQGLEWIGYIKPYKDGTKYNEKFKGKATLISDKPSSTAYMELSSLTSEDSAVYYCAREGENGYYDAMDYWGQGTSVTVSS
VL: DIQMTQSPSSLSASLGGKVTITCKASQDINKYIAWYQHKPGKGPRLLIHYTSTLQPGIPSRFSGSGSGRDYSFSISNLEPEDIATYYCLQYDNLLYTFGGGTKLELKR
notes: Murine monoclonal antibody purified from hybridoma supernatant; also called CD123Mu-3; CD123 Mu-3
For B2, the “IC50, inhibition of IL-3 dependent proliferation of TF-1 cells” value (from here on “IC50, inhibition”) in assay [2] came out at 0.26 nM. The Kd was 0.3 nM in assay [3] and 0.2 nM in assay [4].

B3: muCD123-6 (antibody, mouse IgG1, kappa, V domains shown)
VH: EFQLQQSGPELVKPGASVKMSCKASGYIFTSSIMHWMKQKPGQGLEWIGYIKPYNDGTKYNEKFKGKATLTSDKSSSTANMELNSLTSEDSAVYYCAREGGNDYYDTMDYWGQGTSVTVSS
VL: DIKMTQSPSSMYASLGERVTITCKASQDINSYLSWFQQKPGKSPKTLIYRVNRLVDGVPSRFSGSGSGQDYSLTISSLEYEDMGIYYCLQYDAFPYTFGGGTKLEIKR
notes: Murine monoclonal antibody purified from hybridoma supernatant; also called CD123Mu-6; CD123 Mu-6
As to B3, the “IC50, inhibition” value in assay [2] is 0.05 nM. Further, the Kd in assay [3] is 0.1 nM; in assay [5], ~0.06 nM; in assay [4] it was 0.07 nM.

B4: huCD123-6Gv4.7-CysMab-D4 (antibody)
heavy: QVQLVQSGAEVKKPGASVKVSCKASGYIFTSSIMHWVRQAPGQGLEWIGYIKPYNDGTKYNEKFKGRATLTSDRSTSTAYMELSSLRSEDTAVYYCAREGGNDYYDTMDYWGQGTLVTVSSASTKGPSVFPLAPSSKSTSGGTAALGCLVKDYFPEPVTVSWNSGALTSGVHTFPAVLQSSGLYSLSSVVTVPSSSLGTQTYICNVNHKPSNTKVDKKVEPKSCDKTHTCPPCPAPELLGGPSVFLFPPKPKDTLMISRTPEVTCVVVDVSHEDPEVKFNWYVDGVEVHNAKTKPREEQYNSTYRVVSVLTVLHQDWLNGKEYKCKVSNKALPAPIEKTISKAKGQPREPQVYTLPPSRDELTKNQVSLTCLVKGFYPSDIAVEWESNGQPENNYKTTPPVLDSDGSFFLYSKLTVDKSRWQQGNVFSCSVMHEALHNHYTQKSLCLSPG
light: DIQMTQSPSSLSASVGDRVTITCRASQDINSYLSWFQQKPGKAPKTLIYRVNRLVDGVPSRFSGSGSGNDYTLTISSLQPEDFATYYCLQYDAFPYTFGQGTKVEIKRTVAAPSVFIFPPSDEQLKSGTASVVCLLNNFYPREAKVQWKVDNALQSGNSQESVTEQDSKDSTYSLSSTLTLSKADYEKHKVYACEVTHQGLSSPVTKSFNRGEC
modifications: D4 linked through the engineered Cys in the heavy chain CH3 domain (5th to the last residue of SEQ ID NO: 54; EU/OU position 442); 1.8 mol D4/mol antibody
As to B4, the “EC50 (read off the curve)” value in assay [1] is ~0.06 nM.

B5: huCD123-6Gv4.7S3-D2 (antibody, human IgG1, kappa)
heavy: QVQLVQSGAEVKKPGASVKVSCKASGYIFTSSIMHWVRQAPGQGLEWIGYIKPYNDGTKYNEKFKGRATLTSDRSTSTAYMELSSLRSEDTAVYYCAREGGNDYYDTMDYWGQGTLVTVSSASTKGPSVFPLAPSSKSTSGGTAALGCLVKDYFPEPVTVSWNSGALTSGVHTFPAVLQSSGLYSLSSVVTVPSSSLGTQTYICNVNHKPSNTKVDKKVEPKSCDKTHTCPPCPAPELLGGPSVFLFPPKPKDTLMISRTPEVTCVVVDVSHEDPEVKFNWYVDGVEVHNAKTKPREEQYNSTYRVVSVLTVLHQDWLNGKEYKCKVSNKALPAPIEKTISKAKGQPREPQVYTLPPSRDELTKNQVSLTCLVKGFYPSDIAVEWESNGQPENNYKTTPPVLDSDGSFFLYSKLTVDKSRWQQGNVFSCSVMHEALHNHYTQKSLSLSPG
light: B4 light with D1S
modifications: D2 linked at Lys residues; sites not stated; D2 linked at Lys residues; average of 2.9 D2 per antibody, sites not stated
In the case of B5, the “EC50 (read off the curve)” value in assay [6] is ~0.1 nM.

B6: huCD123-6Gv4.7S3-sSPDB-D1 (antibody, human IgG1, kappa)
heavy: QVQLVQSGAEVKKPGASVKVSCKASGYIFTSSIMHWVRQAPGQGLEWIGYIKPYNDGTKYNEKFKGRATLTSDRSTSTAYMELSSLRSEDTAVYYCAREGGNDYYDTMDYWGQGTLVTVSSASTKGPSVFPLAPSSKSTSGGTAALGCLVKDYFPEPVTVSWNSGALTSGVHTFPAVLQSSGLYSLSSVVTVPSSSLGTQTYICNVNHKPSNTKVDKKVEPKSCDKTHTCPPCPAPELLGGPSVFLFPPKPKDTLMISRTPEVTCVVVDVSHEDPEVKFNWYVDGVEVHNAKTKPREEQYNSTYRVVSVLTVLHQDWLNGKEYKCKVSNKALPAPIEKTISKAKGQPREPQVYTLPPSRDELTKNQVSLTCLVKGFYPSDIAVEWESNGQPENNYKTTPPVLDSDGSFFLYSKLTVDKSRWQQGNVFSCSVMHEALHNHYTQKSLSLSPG
light: B4 light with D1S
modifications: D1 linked at Lys residues via a sulfonated SPDB linker; sites not stated; D1 linked at Lys residues via a sulfonated SPDB linker; average of 2.9 D1 per antibody, sites not stated
notes: also called huCD123Gv4.7S3-sulfo-SPDB-D1
Turning to B6, the concentration giving a half-maximal response (EC50 (read off the curve)) in assay [6] was ~0.1 nM.

B7: huCD123-6Gv4.7S3-SeriMab-sD1 (antibody, human IgG1, kappa)
heavy: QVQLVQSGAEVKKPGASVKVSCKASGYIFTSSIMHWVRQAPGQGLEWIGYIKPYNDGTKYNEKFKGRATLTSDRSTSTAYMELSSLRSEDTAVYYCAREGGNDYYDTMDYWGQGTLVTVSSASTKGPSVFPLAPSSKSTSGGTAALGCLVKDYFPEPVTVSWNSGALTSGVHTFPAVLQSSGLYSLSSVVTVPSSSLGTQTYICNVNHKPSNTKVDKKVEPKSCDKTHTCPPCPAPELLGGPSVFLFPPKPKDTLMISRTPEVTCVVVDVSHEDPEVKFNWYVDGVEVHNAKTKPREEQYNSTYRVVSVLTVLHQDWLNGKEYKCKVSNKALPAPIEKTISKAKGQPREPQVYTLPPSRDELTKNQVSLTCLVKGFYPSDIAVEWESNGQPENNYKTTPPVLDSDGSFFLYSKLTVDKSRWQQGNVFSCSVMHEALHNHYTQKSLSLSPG
light: B4 light with D1S
modifications: sulfonated D1 (sD1) linked through the oxidized N-terminal Ser on the light chain; average of 2.0 D1 per antibody
notes: also called huCD123-6-SeriMab-sD1
Regarding B7, in assay [6], the “EC50 (read off the curve)” value is ~0.2 nM.

B8: huCD123-6Gv4.7S3-SeriMab-D8 (antibody, human IgG1, kappa)
heavy: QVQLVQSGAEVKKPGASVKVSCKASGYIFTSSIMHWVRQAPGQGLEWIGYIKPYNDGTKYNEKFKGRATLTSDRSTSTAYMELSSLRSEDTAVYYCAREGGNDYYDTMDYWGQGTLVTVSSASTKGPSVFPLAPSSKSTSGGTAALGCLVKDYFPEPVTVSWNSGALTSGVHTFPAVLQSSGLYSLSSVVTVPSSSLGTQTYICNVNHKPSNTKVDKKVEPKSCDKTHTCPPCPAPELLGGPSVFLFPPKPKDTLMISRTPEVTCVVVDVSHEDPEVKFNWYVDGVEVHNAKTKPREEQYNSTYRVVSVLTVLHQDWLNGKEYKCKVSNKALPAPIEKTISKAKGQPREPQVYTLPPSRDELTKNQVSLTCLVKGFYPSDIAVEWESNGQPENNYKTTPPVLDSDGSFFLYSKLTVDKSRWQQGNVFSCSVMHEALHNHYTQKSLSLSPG
light: B4 light with D1S
modifications: D8 linked through the oxidized N-terminal Ser on the light chain
As to B8, the “EC50 (read off the curve)” value in assay [6] is ~0.2 nM.

B9: huCD123-6Rv1.1-D2 (antibody, human IgG1, kappa)
heavy: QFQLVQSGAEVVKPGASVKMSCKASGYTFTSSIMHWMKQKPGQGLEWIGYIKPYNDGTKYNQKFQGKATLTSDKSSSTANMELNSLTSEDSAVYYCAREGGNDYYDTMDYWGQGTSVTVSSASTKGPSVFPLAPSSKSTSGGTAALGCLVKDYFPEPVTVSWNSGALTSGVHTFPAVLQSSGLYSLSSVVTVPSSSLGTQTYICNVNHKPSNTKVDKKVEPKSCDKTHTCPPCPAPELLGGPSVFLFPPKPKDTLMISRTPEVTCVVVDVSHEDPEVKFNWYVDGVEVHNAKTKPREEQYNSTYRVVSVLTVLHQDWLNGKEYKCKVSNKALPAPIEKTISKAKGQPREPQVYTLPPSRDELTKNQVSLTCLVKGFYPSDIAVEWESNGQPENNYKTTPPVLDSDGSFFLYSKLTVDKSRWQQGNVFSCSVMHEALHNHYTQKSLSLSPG
light: B4 light with L11M, D17E, A43S, N69Q, T72S, Q79E, F83M, A84G, T85I, V104L
modifications: D2 linked at Lys residues; sites not stated; D2 linked at Lys residues; sites and drug load not stated
With B9, in assay [2], the “IC50, in vitro cytotoxicity on HNT-34 cells” value is ~0.002 nM; the “IC50, in vitro cytotoxicity on MOLM-1 cells” value was ~0.03 nM; the “IC50, in vitro cytotoxicity on SHI-1 cells” value was ~0.01 nM; the “fold loss of cytotoxicity when CD123 is blocked by the unconjugated huCD123-6 antibody” value was ≥ 100 fold. Moreover, in assay [7], the “IC50, in vitro cytotoxicity on EOL-1 cells (AML)” value came to 0.0025 nM; the “IC50, in vitro cytotoxicity on Granta519 cells (NHL)” value amounted to 0.0012 nM; the “IC50, in vitro cytotoxicity on HNT-34 cells (AML)” value was 0.002 nM; the “IC50, in vitro cytotoxicity on JM-1 cells (B-ALL)” value was found to be 0.024 nM. In addition, in assay [7], the “IC50, in vitro cytotoxicity on KASUMI-3 cells (AML)” value was 0.0098 nM; the “IC50, in vitro cytotoxicity on KCL-22 cells (CML)” value came out at 0.03 nM; the “IC50, in vitro cytotoxicity on KG-1 cells (AML)” value was 0.22 nM; the “IC50, in vitro cytotoxicity on KO52 cells (AML)” value stood at 0.014 nM. Also, in assay [7], the “IC50, in vitro cytotoxicity on KOPN8 cells (B-ALL)” value stood at 0.011 nM; the “IC50, in vitro cytotoxicity on MOLM-1 cells (CML)” value was 0.029 nM; the “IC50, in vitro cytotoxicity on MOLM-13 cells (AML)” value came to 0.00049 nM; the “IC50, in vitro cytotoxicity on MV4-11 cells (AML)” value worked out at 0.00056 nM. Moreover, in assay [7], the “IC50, in vitro cytotoxicity on OCI-AML2 cells (AML)” value came to 0.088 nM; the “IC50, in vitro cytotoxicity on SHI-1 cells (AML)” value was found to be 0.013 nM; the “IC50, in vitro cytotoxicity on THP1 cells (AML)” value stood at 0.0067 nM.

B10: huCD123-6Gv4.7-CysMab-D5 (antibody)
heavy: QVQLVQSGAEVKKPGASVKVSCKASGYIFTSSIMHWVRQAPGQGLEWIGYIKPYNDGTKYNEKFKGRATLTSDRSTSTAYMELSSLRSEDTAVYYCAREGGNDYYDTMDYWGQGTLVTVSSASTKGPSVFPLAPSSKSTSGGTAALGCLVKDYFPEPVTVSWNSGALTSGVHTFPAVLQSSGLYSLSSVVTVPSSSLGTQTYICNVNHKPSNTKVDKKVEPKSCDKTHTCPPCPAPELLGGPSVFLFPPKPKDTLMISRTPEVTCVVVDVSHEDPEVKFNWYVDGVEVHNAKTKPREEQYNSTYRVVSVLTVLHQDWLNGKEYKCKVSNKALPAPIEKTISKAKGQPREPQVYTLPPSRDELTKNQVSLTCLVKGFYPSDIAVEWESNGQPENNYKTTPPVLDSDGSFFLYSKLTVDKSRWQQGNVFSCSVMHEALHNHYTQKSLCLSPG
light: B4 light
modifications: D5 linked through the engineered Cys in the heavy chain CH3 domain (5th to the last residue of SEQ ID NO: 54; EU/OU position 442); 2 mol D5/mol antibody
notes: also called huCD123-CysMab-D5; Cys-linked D5 conjugate
For B10, in assay [8], the “Fold-specificity IC50 control ADC/IC50 huCD123-CysMab-D5, EOL-1 cells” value turned out to be 1000 fold; the “Fold-specificity IC50 control ADC/IC50 huCD123-CysMab-D5, HNT-34 cells” value was determined as 1100 fold; the “Fold-specificity IC50 control ADC/IC50 huCD123-CysMab-D5, KASUMI-3 cells” value worked out at 100 fold; the “Fold-specificity IC50 control ADC/IC50 huCD123-CysMab-D5, KG-1 cells” value is 95 fold. In assay [8], the “Fold-specificity IC50 control ADC/IC50 huCD123-CysMab-D5, KO52 cells” value is 100 fold; the “Fold-specificity IC50 control ADC/IC50 huCD123-CysMab-D5, MOLM-1 cells” value is > 167 fold; the “Fold-specificity IC50 control ADC/IC50 huCD123-CysMab-D5, MV4-11 cells” value worked out at 2000 fold; the “Fold-specificity IC50 control ADC/IC50 huCD123-CysMab-D5, Molm-13 cells” value was 2000 fold. Besides, in assay [8], the “Fold-specificity IC50 control ADC/IC50 huCD123-CysMab-D5, SHI-1 cells” value was > 3.33 fold; the “Fold-specificity IC50 control ADC/IC50 huCD123-CysMab-D5, SKM-1 cells” value amounted to 57 fold; the “Fold-specificity IC50 control ADC/IC50 huCD123-CysMab-D5, THP-1 cells” value turned out to be 167 fold; the “Fold-specificity IC50 control ADC/IC50 huCD123-CysMab-D5, UCSD-AML1 cells” value was determined as 400 fold. In addition, in assay [8], the “IC50, in vitro cytotoxicity on EOL-1 cells” value was 2 pmol; the “IC50, in vitro cytotoxicity on HNT-34 cells” value is 1 pmol; the “IC50, in vitro cytotoxicity on KASUMI-3 cells” value was found to be 3 pmol; the “IC50, in vitro cytotoxicity on KG-1 cells” value came out at 60 pmol. Moreover, in assay [8], the “IC50, in vitro cytotoxicity on KO52 cells” value turned out to be 20 pmol; the “IC50, in vitro cytotoxicity on MOLM-1 cells” value was 120 pmol; the “IC50, in vitro cytotoxicity on MV4-11 cells” value came to 1 pmol; the “IC50, in vitro cytotoxicity on Molm-13 cells” value came to 0.5 pmol. Also, in assay [8], the “IC50, in vitro cytotoxicity on SHI-1 cells” value is 6 pmol; the “IC50, in vitro cytotoxicity on SKM-1 cells” value worked out at 7 pmol; the “IC50, in vitro cytotoxicity on THP-1 cells” value worked out at 30 pmol; the “IC50, in vitro cytotoxicity on UCSD-AML1 cells” value is 1 pmol. For the same molecule, the half-maximal effective concentration (EC50 (read off the curve)) in assay [1] is ~0.08 nM.

B11: muCD123-14 (antibody, mouse IgG1, kappa, V domains shown)
VH: EVKLVESGGDLVKPGGSLKLSCAASGFTFSNYAMSWVRQNSEKRLEWVATINSGGSFTYYPDSVKGRFTISRDNAKDSLYLQMSSLNSEDTAMYYCARQSEAYYGYDKRTWFAYWGQGTLVTVSS
VL: DILLTQSPAILSVSPGTRVSFSCRASQSVGTSIHWYQQRPNGFPRLLIKYASESISGIPSRFSGSGSGTDFTLNINSVESEDIADYYCQQSKSWPLTFGAGTKLELKR
notes: Murine monoclonal antibody purified from hybridoma supernatant; also called CD123Mu-14; CD123 Mu-14
On to B11, for which the “IC50, inhibition” value in assay [2] turned out to be 0.08 nM. Also, the Kd is 0.3 nM in assay [3] and 0.5 nM in assay [4].
